Laboratory results from PMC3954793, “SHP-2 Binds to Caveolin-1 and Regulates Src Activity via Competitive Inhibition of CSK in Response to H2O2 in Astrocytes” (PLoS ONE, 2014).

Legend:
[1] = molecular target: SHP-2 (UniProt Q06124); test: PepSPOT peptide array overlay; conditions: reference: nonphosphorylated 13-mer peptides; sites Y14
[2] = molecular target: CSK (UniProt P41240); test: PepSPOT peptide array overlay; conditions: reference: nonphosphorylated 13-mer peptides; sites Y14

binding against the reference [1]: stronger
binding against the reference [2]: stronger
Substance: caveolin-1 13-mers within 1-28 (from UniProt Q03135) pY14 13-mer peptides
